Test results as given in the supplement of paper PMC10567573.

B1: FBF1 (parent)
chain: QLQCSPAELQAELLHSQARLAELE

Variants of: B1
Experiment: protein stability index of a GFP-peptide fusion (GPS, HEK-293T) (PSI 1-6); higher = more stable
Conditions: c terminus: a fixed tail appended
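Also: lentivirally expressed fusions sorted by FACS into six bins by GFP to DsRed ratio, PSI derived from sequencing read proportions per bin multiplied by bin number.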

Variant	protein stability index
QLQCSPATLQAELLHSQARLAELE [E8T]	2.41
QLQCSPAFLQAELLHSQARLAELE [E8F]	2.13
QLQCSPAALQAELLHSQARLAELE [E8A]	1.66
QLQCSPASLQAELLHSQARLAELE [E8S]	2.17
QLQCSPACLQAELLHSQARLAELE [E8C]	1.72
QLQCSPAILQAELLHSQARLAELE [E8I]	2.28
QLQCSPAMLQAELLHSQARLAELE [E8M]	2.06
QLQCSPADLQAELLHSQARLAELE [E8D]	2.55
QLQCSPAKLQAELLHSQARLAELE [E8K]	2.79
QLQCSPAYLQAELLHSQARLAELE [E8Y]	2.25
QLQCSPAHLQAELLHSQARLAELE [E8H]	2.48
QLQCSPANLQAELLHSQARLAELE [E8N]	2.84
QLQCSPAVLQAELLHSQARLAELE [E8V]	2.18
QLQCSPALLQAELLHSQARLAELE [E8L]	2.27
QLQCSPARLQAELLHSQARLAELE [E8R]	2.33
QLQCSPAGLQAELLHSQARLAELE [E8G]	2.76
QLQCSPAPLQAELLHSQARLAELE [E8P]	3.86
QLQCSPAQLQAELLHSQARLAELE [E8Q]	2.67
QLQCSPAWLQAELLHSQARLAELE [E8W]	1.79
QLQCSPAELLAELLHSQARLAELE [Q10L]	2.17
QLQCSPAELIAELLHSQARLAELE [Q10I]	2.04
QLQCSPAELTAELLHSQARLAELE [Q10T]	3.91
QLQCSPAELNAELLHSQARLAELE [Q10N]	3.54
QLQCSPAELCAELLHSQARLAELE [Q10C]	2.45

Variant	protein stability index
QLQCSPAELGAELLHSQARLAELE [Q10G]	3.85
QLQCSPAELEAELLHSQARLAELE [Q10E]	3.95
QLQCSPAELVAELLHSQARLAELE [Q10V]	2.56
QLQCSPAELRAELLHSQARLAELE [Q10R]	2.56
QLQCSPAELDAELLHSQARLAELE [Q10D]	5.13
QLQCSPAELFAELLHSQARLAELE [Q10F]	1.79
QLQCSPAELWAELLHSQARLAELE [Q10W]	2.21
QLQCSPAELHAELLHSQARLAELE [Q10H]	3.1
QLQCSPAELKAELLHSQARLAELE [Q10K]	3.74
QLQCSPAELMAELLHSQARLAELE [Q10M]	2.29
QLQCSPAELSAELLHSQARLAELE [Q10S]	3.7
QLQCSPAELPAELLHSQARLAELE [Q10P]	4.69
QLQCSPAELYAELLHSQARLAELE [Q10Y]	1.89
QLQCSPAELAAELLHSQARLAELE [Q10A]	2.93
QLQCSPAELQFELLHSQARLAELE [A11F]	2.41
QLQCSPAELQLELLHSQARLAELE [A11L]	1.71
QLQCSPAELQWELLHSQARLAELE [A11W]	2.59
QLQCSPAELQKELLHSQARLAELE [A11K]	3.04
QLQCSPAELQDELLHSQARLAELE [A11D]	2.94
QLQCSPAELQVELLHSQARLAELE [A11V]	2.87
QLQCSPAELQTELLHSQARLAELE [A11T]	3.37
QLQCSPAELQEELLHSQARLAELE [A11E]	4.26
QLQCSPAELQHELLHSQARLAELE [A11H]	3.38
QLQCSPAELQQELLHSQARLAELE [A11Q]	3.28

Variant	protein stability index
QLQCSPAELQPELLHSQARLAELE [A11P]	4.43
QLQCSPAELQMELLHSQARLAELE [A11M]	2.01
QLQCSPAELQNELLHSQARLAELE [A11N]	3.1
QLQCSPAELQSELLHSQARLAELE [A11S]	2.77
QLQCSPAELQIELLHSQARLAELE [A11I]	2.24
QLQCSPAELQRELLHSQARLAELE [A11R]	2.62
QLQCSPAELQCELLHSQARLAELE [A11C]	3.89
QLQCSPAELQGELLHSQARLAELE [A11G]	4.24
QLQCSPAELQYELLHSQARLAELE [A11Y]	2.3
QLQCSPAESQAELLHSQARLAELE [L9S]	5.05
QLQCSPAEFQAELLHSQARLAELE [L9F]	4.1
QLQCSPAEIQAELLHSQARLAELE [L9I]	4.14
QLQCSPAEQQAELLHSQARLAELE [L9Q]	4.62
QLQCSPAEMQAELLHSQARLAELE [L9M]	4.3
QLQCSPAEYQAELLHSQARLAELE [L9Y]	4.64
QLQCSPAECQAELLHSQARLAELE [L9C]	3.85
QLQCSPAENQAELLHSQARLAELE [L9N]	4.92
QLQCSPAEGQAELLHSQARLAELE [L9G]	4.96
QLQCSPAEWQAELLHSQARLAELE [L9W]	4.52
QLQCSPAEPQAELLHSQARLAELE [L9P]	4.79
QLQCSPAERQAELLHSQARLAELE [L9R]	4.51
QLQCSPAEKQAELLHSQARLAELE [L9K]	4.57
QLQCSPAETQAELLHSQARLAELE [L9T]	4.45
QLQCSPAEDQAELLHSQARLAELE [L9D]	5.05

Variant	protein stability index
QLQCSPAEEQAELLHSQARLAELE [L9E]	5.3
QLQCSPAEHQAELLHSQARLAELE [L9H]	4.18
QLQCSPAEAQAELLHSQARLAELE [L9A]	4.79
QLQCSPAEVQAELLHSQARLAELE [L9V]	4.4
QLQCSPTELQAELLHSQARLAELE [A7T]	2.78
QLQCSPHELQAELLHSQARLAELE [A7H]	2.57
QLQCSPYELQAELLHSQARLAELE [A7Y]	1.82
QLQCSPMELQAELLHSQARLAELE [A7M]	2.36
QLQCSPSELQAELLHSQARLAELE [A7S]	3.62
QLQCSPGELQAELLHSQARLAELE [A7G]	2.52
QLQCSPFELQAELLHSQARLAELE [A7F]	2.57
QLQCSPPELQAELLHSQARLAELE [A7P]	3.79
QLQCSPEELQAELLHSQARLAELE [A7E]	3.4
QLQCSPNELQAELLHSQARLAELE [A7N]	3.39
QLQCSPLELQAELLHSQARLAELE [A7L]	2.37
QLQCSPIELQAELLHSQARLAELE [A7I]	2.94
QLQCSPQELQAELLHSQARLAELE [A7Q]	3.27
QLQCSPWELQAELLHSQARLAELE [A7W]	2.92
QLQCSPDELQAELLHSQARLAELE [A7D]	3.66
QLQCSPKELQAELLHSQARLAELE [A7K]	2.9
QLQCSPRELQAELLHSQARLAELE [A7R]	3.06
QLQCSPVELQAELLHSQARLAELE [A7V]	3.07
QLQCSPCELQAELLHSQARLAELE [A7C]	2.74
QLQYSPAELQAELLHSQARLAELE [C4Y]	3.77

Variant	protein stability index
QLQTSPAELQAELLHSQARLAELE [C4T]	3.49
QLQNSPAELQAELLHSQARLAELE [C4N]	3.26
QLQVSPAELQAELLHSQARLAELE [C4V]	2.96
QLQPSPAELQAELLHSQARLAELE [C4P]	3.65
QLQWSPAELQAELLHSQARLAELE [C4W]	2.82
QLQISPAELQAELLHSQARLAELE [C4I]	2.93
QLQKSPAELQAELLHSQARLAELE [C4K]	4.23
QLQFSPAELQAELLHSQARLAELE [C4F]	3.14
QLQRSPAELQAELLHSQARLAELE [C4R]	3.94
QLQGSPAELQAELLHSQARLAELE [C4G]	3.32
QLQHSPAELQAELLHSQARLAELE [C4H]	3.15
QLQESPAELQAELLHSQARLAELE [C4E]	4.39
QLQQSPAELQAELLHSQARLAELE [C4Q]	3.92
QLQMSPAELQAELLHSQARLAELE [C4M]	3.82
QLQLSPAELQAELLHSQARLAELE [C4L]	3.92
QLQSSPAELQAELLHSQARLAELE [C4S]	3.82
QLQCSRAELQAELLHSQARLAELE [P6R]	3.1
QLQCSDAELQAELLHSQARLAELE [P6D]	3.56
QLQCSCAELQAELLHSQARLAELE [P6C]	2.17
QLQCSEAELQAELLHSQARLAELE [P6E]	2.6
QLQCSMAELQAELLHSQARLAELE [P6M]	2.31
QLQCSIAELQAELLHSQARLAELE [P6I]	2.44
QLQCSNAELQAELLHSQARLAELE [P6N]	3.47
QLQCSHAELQAELLHSQARLAELE [P6H]	2.19

Variant	protein stability index
QLQCSGAELQAELLHSQARLAELE [P6G]	2.24
QLQCSWAELQAELLHSQARLAELE [P6W]	2.51
QLQCSLAELQAELLHSQARLAELE [P6L]	2.43
QLQCSKAELQAELLHSQARLAELE [P6K]	4
QLQCSVAELQAELLHSQARLAELE [P6V]	2.44
QLQCSAAELQAELLHSQARLAELE [P6A]	2.85
QLQCSQAELQAELLHSQARLAELE [P6Q]	2.84
QLQCSSAELQAELLHSQARLAELE [P6S]	3.26
QLQCSYAELQAELLHSQARLAELE [P6Y]	2.14
QLQCSFAELQAELLHSQARLAELE [P6F]	2.28
QLQCSTAELQAELLHSQARLAELE [P6T]	3.66
QLQCEPAELQAELLHSQARLAELE [S5E]	3.25
QLQCVPAELQAELLHSQARLAELE [S5V]	3.03
QLQCRPAELQAELLHSQARLAELE [S5R]	2.66
QLQCKPAELQAELLHSQARLAELE [S5K]	3.23
QLQCCPAELQAELLHSQARLAELE [S5C]	3.03
QLQCLPAELQAELLHSQARLAELE [S5L]	3.13
QLQCYPAELQAELLHSQARLAELE [S5Y]	3.01
QLQCHPAELQAELLHSQARLAELE [S5H]	3.01
QLQCDPAELQAELLHSQARLAELE [S5D]	2.74
QLQCFPAELQAELLHSQARLAELE [S5F]	2.87
QLQCQPAELQAELLHSQARLAELE [S5Q]	3.69
QLQCIPAELQAELLHSQARLAELE [S5I]	3.25
QLQCPPAELQAELLHSQARLAELE [S5P]	3.67

Variant	protein stability index
QLQCNPAELQAELLHSQARLAELE [S5N]	2.94
QLQCAPAELQAELLHSQARLAELE [S5A]	3.48
QLQCMPAELQAELLHSQARLAELE [S5M]	3.23
QLQCWPAELQAELLHSQARLAELE [S5W]	2.64
QLQCGPAELQAELLHSQARLAELE [S5G]	2.79
QLQCTPAELQAELLHSQARLAELE [S5T]	3.85
QLQCSPAELQAETLHSQARLAELE [L13T]	4.7
QLQCSPAELQAENLHSQARLAELE [L13N]	4.96
QLQCSPAELQAEMLHSQARLAELE [L13M]	3.34
QLQCSPAELQAEHLHSQARLAELE [L13H]	4.85
QLQCSPAELQAEDLHSQARLAELE [L13D]	5.39
QLQCSPAELQAEALHSQARLAELE [L13A]	4.28
QLQCSPAELQAEILHSQARLAELE [L13I]	4.62
QLQCSPAELQAEGLHSQARLAELE [L13G]	4.59
QLQCSPAELQAEPLHSQARLAELE [L13P]	4.73
QLQCSPAELQAEWLHSQARLAELE [L13W]	4.13
QLQCSPAELQAESLHSQARLAELE [L13S]	4.74
QLQCSPAELQAEKLHSQARLAELE [L13K]	4.25
QLQCSPAELQAEVLHSQARLAELE [L13V]	4.2
QLQCSPAELQAEFLHSQARLAELE [L13F]	4.25
QLQCSPAELQAEELHSQARLAELE [L13E]	4.25
QLQCSPAELQAERLHSQARLAELE [L13R]	4.31
QLQCSPAELQAEQLHSQARLAELE [L13Q]	5.08
QLQCSPAELQAECLHSQARLAELE [L13C]	4.32

Variant	protein stability index
QLQCSPAELQAEYLHSQARLAELE [L13Y]	4.52
QLQCSPAELQAQLLHSQARLAELE [E12Q]	2.67
QLQCSPAELQAWLLHSQARLAELE [E12W]	1.64
QLQCSPAELQAYLLHSQARLAELE [E12Y]	3.22
QLQCSPAELQAKLLHSQARLAELE [E12K]	3.38
QLQCSPAELQARLLHSQARLAELE [E12R]	3.59
QLQCSPAELQAMLLHSQARLAELE [E12M]	3.49
QLQCSPAELQAFLLHSQARLAELE [E12F]	3.56
QLQCSPAELQAALLHSQARLAELE [E12A]	2.47
QLQCSPAELQADLLHSQARLAELE [E12D]	3.33
QLQCSPAELQANLLHSQARLAELE [E12N]	3.18
QLQCSPAELQAILLHSQARLAELE [E12I]	2.57
QLQCSPAELQAHLLHSQARLAELE [E12H]	2.41
QLQCSPAELQASLLHSQARLAELE [E12S]	2.94
QLQCSPAELQALLLHSQARLAELE [E12L]	2.75
QLQCSPAELQAGLLHSQARLAELE [E12G]	3.65
QLQCSPAELQAVLLHSQARLAELE [E12V]	3.17
QLQCSPAELQACLLHSQARLAELE [E12C]	3.05
QLQCSPAELQATLLHSQARLAELE [E12T]	3.62
QLQCSPAELQAPLLHSQARLAELE [E12P]	4.04
